Substrate in the series: CCCCCCCCCCCCCC(=O)SCCNC(=O)CCNC(=O)[C@H](O)C(C)(C)COP(=O)(O)OP(=O)(O)OC[C@H]1O[C@@H](n2cnc3c(N)ncnc32)[C@H](O)[C@@H]1OP(=O)(O)O
In words: purified protein. Particulars: pH 7.5; 25.0 °C.

Among the data in publication PMC4066673 are kcat/Km values, retold here.

B1: hTHEM4 (Homo sapiens) (protein)
chain: SSEEVILKDCSVPNPSWNKDLRLLFDQFMKKCEDGSWKRLPSYKRTPTEWIQDFKTHFLDPKLMKEEQMSQAQLFTRSFDDGLGFEYVMFYNDIEKRMVCLFQGGPYLEGPPGFIHGGAIATMIDATVGMCAMMAGGIVMTANLNINYKRPIPLCSVVMINSQLDKVEGRKFFVSCNVQSVDEKTLYSEATSLFIKLNPAKSLT
Consider B1, for which the kcat/Km came out at 1.7e+06 M⁻¹ s⁻¹.
